# Results as given in US20160206741.
# Test system: T1, GRRRGK (SEQ ID NO: 1) oligopeptide crosslink within P(MAA-co-NVP) microgels
# T1 sequence: GRRRGK
substance,measurement,value
trypsin,relative turbidity of microgel solutions over time,reduced relative turbidity as a function of time and trypsin concentration
same,trypsin activity on the BAEE substrate (absorbance at 253 nm) after 90 min with 0-6 mg/ml microgels,trypsin activity on the BAEE substrate is reduced as microgel concentration increases
